Measured values taken from patent US20120214741A1 (BEN GURION UNIVERSITY OF THE NEGEV RESEARCH AND DEVELOPMENT …, published 2012).

T1: Rat brain HK-I (hexokinase-I), purified (rat, UniProt P05708 1-918)
T1 construct: Purified from rat brain; Used in the planar lipid bilayer and isolated-mitochondria assays
T1 sequence (looked up): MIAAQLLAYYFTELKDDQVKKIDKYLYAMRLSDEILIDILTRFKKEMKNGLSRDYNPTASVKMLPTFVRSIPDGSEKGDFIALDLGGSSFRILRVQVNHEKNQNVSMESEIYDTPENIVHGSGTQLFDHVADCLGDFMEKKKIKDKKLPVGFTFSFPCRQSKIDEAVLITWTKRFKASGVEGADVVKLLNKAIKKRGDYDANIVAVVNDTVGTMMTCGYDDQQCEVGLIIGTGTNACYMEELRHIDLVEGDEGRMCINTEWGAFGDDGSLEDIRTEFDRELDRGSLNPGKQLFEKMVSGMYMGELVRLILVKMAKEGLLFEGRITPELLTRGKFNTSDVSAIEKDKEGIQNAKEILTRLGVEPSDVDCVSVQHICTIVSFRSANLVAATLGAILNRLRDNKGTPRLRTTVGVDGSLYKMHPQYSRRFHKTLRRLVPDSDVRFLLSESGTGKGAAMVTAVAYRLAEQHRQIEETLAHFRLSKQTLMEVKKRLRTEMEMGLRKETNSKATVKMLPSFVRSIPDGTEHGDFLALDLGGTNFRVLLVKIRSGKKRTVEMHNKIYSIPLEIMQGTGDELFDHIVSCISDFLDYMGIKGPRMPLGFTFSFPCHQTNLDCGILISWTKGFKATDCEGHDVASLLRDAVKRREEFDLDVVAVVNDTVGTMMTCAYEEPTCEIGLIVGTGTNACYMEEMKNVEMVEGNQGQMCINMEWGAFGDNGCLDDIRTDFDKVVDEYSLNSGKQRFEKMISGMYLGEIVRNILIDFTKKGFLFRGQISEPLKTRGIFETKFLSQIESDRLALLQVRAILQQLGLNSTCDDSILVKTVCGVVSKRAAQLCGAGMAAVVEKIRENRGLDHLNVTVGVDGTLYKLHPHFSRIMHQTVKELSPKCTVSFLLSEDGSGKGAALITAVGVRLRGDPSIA


Assays:
[1] = target: T1, Rat brain HK-I (hexokinase-I), purified; assay: detachment of HK-I from rat brain mitochondria by the peptide (competition); HK-I activity in the supernatant
[2] = target: T1, Rat brain HK-I (hexokinase-I), purified; assay: purified proteins, VDAC1 reconstituted into a planar lipid bilayer, channel recording
Method: Only PLBs with a resistance greater than 100 GΩ were used. Purified VDAC (about 1 ng) was added to the chamber defined as the cis side. […] Sigma Plot 2000 scientific software was used for data analyses. Experiments were performed at 23-25° C.

binding result [1]	binding result [2]	Binder
binds		WTEYGLTFTEKWNTD (No CPP or Trp zipper in these assays; also called LP1 peptide) [Peptide LP1 (VDAC1 loop 1 peptide)]
	binds	native mVDAC1 (mouse VDAC1), purified recombinant (other, Extracted from mitochondria of yeast expressing mVDAC1, purified and reconstituted into a planar lipid bilayer; also called native VDAC1) MAVPPTYADLGKSARDVFTKGYGFGLIKLDLKTKSENGLEFTSSGSANTETTKVNGSLETKYRWTEYGLTFTEKWNTDNTLGTEITVEDQLARGLKLTFDSSFSPNTGKKNAKIKTGYKREHINLGCDVDFDIAGPSIRGALVLGYEGWLAGYQMNFETSKSRVTQSNFAVGYKTDEFQLHTNVNDGTEFGGSIYQKVNKKLETAVNLAWTAGNSNTRFGIAAKYQVDPDACFSAKVNNSSLIGLGYTQTLKPGIKLTLSALLDGKNVNAGGHKLGLGLEFQA
